Test results taken from US6721663B1, “Method for manipulating protein or DNA sequence data in order to generate complementary peptide ligands” (Proteom Limited, priority 1999, dated 2004).

Tests used:
IL-1b = IL-1b (Homo sapiens, UniProt P01584); experiment: ESAP assay of IL-1b biological activity; assay type: cell-based; details: FIG. 14
Excerpt: (§1) The program picked out antisense region LITVLNI (SEQ ID No. 8) in the IL-1R receptor.

IL-1 [1] = molecular target: T1, IL-1 (Homo sapiens, UniProt P01584); experiment: Serum Amyloid IL-1 assay; assay type: cell-based; details: FIG. 14
T1 sequence (P01584 117-269): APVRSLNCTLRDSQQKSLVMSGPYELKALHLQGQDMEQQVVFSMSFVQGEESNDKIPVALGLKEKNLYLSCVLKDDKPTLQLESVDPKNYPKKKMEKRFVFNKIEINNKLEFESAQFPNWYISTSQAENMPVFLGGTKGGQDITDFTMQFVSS
Excerpt: as §1

IL-1 [2] = molecular target: T1, IL-1; experiment: Direct binding to IL-1 by biosensing techniques
Excerpt: as §1

Chain of IL-1b (P01584 117-269): as above

Substance	inhibition of the biological activity of IL-1b in ESAP assay (IL-1b)	inhibition of IL-1 activity in Serum Amyloid IL-1 assay (IL-1 [1])	direct binding to IL-1 (IL-1 [2])
LTILINV (Hypothetical sequence) [scrambled peptide control of LITVLNI, reference compound]	The effect is dependent on the peptide sequence	–	–
LITVLNI (listed as Homo sapiens) [antisense region in the IL-1R receptor picked out by the ALS program]	inhibit the biological activity of IL-1b	The same effect is also seen	bind directly to IL-1
